This is an account of results in PMC6219635.

Assay in all cases: SDS-PAGE under non-reducing conditions
Assay [1] concerns the target FG-IncD M (FLAG-tagged TM region of IncD) (Chlamydia trachomatis).
Assay [2] has as its target FG-IncD ΔC (aa 1-91) (Chlamydia trachomatis).
For assay [3], the target named is FG-IncD ΔN (38-146) (Chlamydia trachomatis).

For the substance “FG-IncD M (FLAG-tagged TM region of IncD) (domain or fragment)”, the stoichiometry N (usually the number of molecules, sites or subunits per partner or assembly) in assay [1] was found to be 2.
“FG-IncD ΔC (aa 1-91) (domain or fragment)” came in with a stoichiometry N in assay [2] of 2.
In assay [3], “FG-IncD ΔN (38-146) (domain or fragment)” displayed a stoichiometry N of 2.
